Changes are numbered by the printed parent chain.

The source of these data is patent publication US20180030135A1, “HUMAN MONOCLONAL ANTIBODIES AGAINST OREXIN RECEPTOR TYPE 1” (INSERM (INSTITUT NATIONAL DE LA SANTÉ ET DE LA RECHERCHÉ …, priority 2015, published 2018).

In assay [1] the target is T1, rat OX1R (rat, UniProt P56718 1-416).
T1 construct: whole, on cells; also called CHO-ratOX1R; OX1R of rat
T1 sequence (looked up): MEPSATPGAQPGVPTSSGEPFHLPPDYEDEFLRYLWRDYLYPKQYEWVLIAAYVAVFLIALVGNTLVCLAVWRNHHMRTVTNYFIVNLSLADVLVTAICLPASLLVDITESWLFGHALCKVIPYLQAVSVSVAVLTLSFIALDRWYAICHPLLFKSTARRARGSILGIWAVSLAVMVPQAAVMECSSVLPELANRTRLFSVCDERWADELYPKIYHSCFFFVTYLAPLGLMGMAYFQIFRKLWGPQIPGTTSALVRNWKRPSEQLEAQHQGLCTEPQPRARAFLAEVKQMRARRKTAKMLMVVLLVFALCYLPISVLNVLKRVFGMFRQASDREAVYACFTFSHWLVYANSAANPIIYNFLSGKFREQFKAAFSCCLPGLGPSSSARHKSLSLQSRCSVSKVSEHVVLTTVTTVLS
Put plainly: told from effects on cells transfected with rat OX1R (FIG. 4).

For assay [2], the target named is T2, mouse OX1R (mouse, UniProt P58307 1-416).
T2 construct: whole, on cells; Legend says HEK-mouseOX1R, the text says CHO cell lines transfected with OX1R of mouse or rat; also called HEK-mouseOX1R; OX1R of mouse
T2 sequence (looked up): T1 sequence (looked up) with H116Q, R205H, F221I, G232A, P245R, S383G
Put plainly: told from effects on cells transfected with mouse OX1R (FIG. 4).

Assay [3] has as its target T3, orexin receptor type 1 (OX1R) (human, UniProt O43613 1-425).
T3 construct: whole, on cells; also called HCTR1; hypocretin receptor type 1
T3 sequence (looked up): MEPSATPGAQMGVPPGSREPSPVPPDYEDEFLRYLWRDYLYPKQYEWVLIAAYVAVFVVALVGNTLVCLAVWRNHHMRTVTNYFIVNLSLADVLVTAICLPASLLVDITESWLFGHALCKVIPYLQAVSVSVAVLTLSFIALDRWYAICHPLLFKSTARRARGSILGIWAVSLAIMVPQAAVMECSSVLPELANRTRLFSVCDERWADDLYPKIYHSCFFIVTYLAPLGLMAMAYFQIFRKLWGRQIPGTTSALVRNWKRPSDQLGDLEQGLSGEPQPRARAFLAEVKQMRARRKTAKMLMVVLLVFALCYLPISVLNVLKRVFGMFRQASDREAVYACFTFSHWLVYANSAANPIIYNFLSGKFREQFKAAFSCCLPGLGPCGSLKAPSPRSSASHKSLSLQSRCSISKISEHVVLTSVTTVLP
The experiment in a line: competitive inhibition of 125I-OxA binding to HEK-OX1R cells.

The subject of assay [4] is LoVo cells. Put plainly: Cell growth of colon cancer cell line LoVo. Type of assay: cell-based. To be noted: 0.1 μM, 48 h. The procedure:
(§1) A. SW48 and AsPC-1 cells. B. LoVo and HCT-116 cells. Cells were treated for 48 h with 0.1 μM of each compound and then cells were counted. Results were expressed as the percentage of untreated cell number (Control).
(§2) We have tested the ability of antibodies to inhibit the cellular growth in cancer cell lines derived from colon cancer (SW48, LoVo and HCT-116 cells) and pancreas cancer (AsPC-1 cells). […] D4 and H7 have a weak effect. […] As previously described (see above) orexins are able to induce a mitochondrial apoptosis in cancer cell lines. We test the ability of antibodies to induce apoptosis in HEK-OX1R cells and colonic cancer cell line LoVo. […] This effect was dose-dependent. Indeed when HEK-OX1R cells were treated with 0.01μM of C2 antibody, cell apoptosis was only of 6±0.7% of total cells.

The subject of assay [5] is HEK-OX1R cells expressing recombinant OX1R. Put plainly: Cell growth of HEK-OX1R cells (cell counting). Type of assay: cell-based, human. The note with it: 0.1 μM, 48 h.
For assay [6], the system named is HEK-mouseOX1R. Put plainly: Cell growth / apoptosis of cells transfected with mouse OX1R. To be noted: 0.1 μM, 48 h, FIG. 4. Format: cell-based. The procedure:
Cells were treated for 48 h with 0.1 μM of each compound and then cells were counted. Results were expressed as the percentage of untreated cell number (Control).
The development of antibodies directed against OX1R were produced by a phage display strategy and the antibody selection was performed by using HEK and HEK stably expressing OX1R (HEK-OX1R) cell lines. As a first step, a batch of 7 different antibodies named B4, B10, C1, C2, D4, E7 and H7 was tested for their ability to inhibit the cell growth of HEK-OX1R. […] In contrast, B4, B10, D4, E7 and. […] As previously described orexins (A & B) induced a mitochondrial apoptosis mediated by an entirely novel mechanism, not related to Gq-mediated phospholipase C activation. In fact, orexins induced the tyrosine phosphorylation of two immunoreceptor tyrosine-based inhibitory motifs (ITIMs) located in the OX1R sequence. The resulting phosphorylated receptor could then recruit and activate the phosphotyrosine phosphatase, SHP-2, which is responsible for mitochondrial apoptosis, involving cytochrome c release from mitochondria to cytosol and caspase-3 and caspase-7 activation. Here, we tested the effect of SHP inhibitor (NSC 87877) on the ability of anti-OX1R to inhibit the cellular growth of HEK-OX1R (FIG. 3).

The subject of assay [7] is AsPC-1 cells. Put plainly: Cell growth of pancreas cancer cell line AsPC-1. Type of assay: cell-based. The note with it: 0.1 μM, 48 h. The procedure: as §1, §2
Assay [8] concerns CHO-ratOX1R. The experiment in a line: Cell growth / apoptosis of cells transfected with rat OX1R. Format: cell-based. The note with it: 0.1 μM, 48 h, FIG. 4.
For assay [9], the system named is SW48 cells. The experiment in a line: Cell growth of colon cancer cell line SW48. The note with it: 0.1 μM, 48 h. Type of assay: cell-based. The procedure: as §1, §2
Assay [10] has as its system HEK-OX1R cells expressing recombinant OX1R. The experiment in a line: Apoptosis in HEK-OX1R cells (annexin V-PE binding, Guava nexin kit). Format: cell-based, human. To be noted: 0.1 μM, 48 h.

B1: C1 antibody (antibody, V domains shown)
VH: EVQLVESGGSLVKPGGSLRLSCAASGFTFSNYYMNWVRQAPGKGLEWISYISGSSRNIYYADFVKGRFTISRDNATNSLYLQMNSLRAEDTAVYYCVRSNYDGMDVWGRGTLVTVSS
VL: QSVLTQPASVSGSPGQSITISCAGTSSDVGGSNYVSWYQQHPGKAPKLMIYSDSYRPSGVSNRFSGSKSGNTASLTISGLQAEDEADYYCSSYTYYSTRVFGGGTKLAVLG
notes: Human anti-OX1R antibody from phage display
As for B1, the binding result in [1] and in assay [2] was “binds” each time. Besides, in [3], the IC50 (as a rule, the concentration needed to halve the response being measured) was ~5 µM.

B2: C1: human monoclonal anti-OX1R antibody from phage display; VH SEQ ID NO:1, VL SEQ ID NO:2 (antibody, V domains shown)
VH: B1 VH
VL: B1 VL
modifications: Synthetic VH sequence of C1; Synthetic VL sequence of C1
Consider B2, for which the “cell growth inhibition in LoVo cells” value in assay [4] is listed as “inhibit the cell growth in LoVo cells similarly to OxB”. Besides, the “inhibition of HEK-OX1R cellular growth in the presence of SHP inhibitor NSC 87877” value in [5] (50 μM NSC 87877) is given as “totally reversed”. The “reduction of HEK-OX1R cell number (cellular growth inhibition)” value in assay [5] (cells counted, versus untreated cells) is given as “about 46%±3”. Further, in assay [6], the “promotion of apoptosis of cells transfected with OX1R of mouse (cross reaction)” value is listed as “able to promote apotosis”. For the same molecule, in assay [7], the “cell growth inhibition in AsPC-1 cells” value is “cell growth inhibition similar to OxB effect”. Besides, the “promotion of apoptosis of cells transfected with OX1R of rat (cross reaction)” value in [8] is listed as “able to promote apotosis”. Moreover, the “cell growth inhibition in SW48 cells” value in assay [9] is “inhibit the cell growth in SW48 cells similarly to OxB”. Moreover, the “apoptosis in HEK-OX1R cells, % of total cells” value in [10] came out at 12±1%.
